Data on 3 molecules can be found in patent US20130156779A1 (GlaxoSmithKline, published 2013).

In general, Kd refers to the concentration at which binding is half-saturated. Broadly, the koff is the rate constant with which the complex falls apart. By kon is commonly meant the second-order rate constant of association. A word on the EC50 (read off the curve): it is the concentration giving half of the maximal effect. Higher therefore signals a need for much substance.

Assay [1] addresses T1, Full-length rat HER3 extracellular domain (ECD) (rat, UniProt Q62799 20-643).
T1 construct: extracellular domain; also called Rat HER3 ECD
Put plainly: BIACORE SPR, mAb captured on protein A, ECD as analyte, 25 C. As to the method: (§1) Protein A was immobilised on a CM5 chip by primary amine coupling to a level of ˜1300 resonance units (RU′s), humanized antibodies were then captured on this chip, All antibodies were captured to a similar level (100-200 RU's). […] Alternatively, the full-length, rat HER3 ECD or the full-length cynomolgus monkey ECD were passed over the chip at 10 nM, 5 nM, 2.5 nM, 1:25nM, 0.625 nM and 0.3125nM. An injection of buffer alone was used to double reference the binding curves as indicated in Example 1. Regeneration of this surface was achieved using 10 mM Glycine buffer pH 1.5. The binding data was fitted to the 1:1 model using BIACORE™ Evaluation software. Runs were carried out at 25° C. on a BIACORE™ T3000 using HBS-EP as running buffer.

In assay [2] the target is T2, Full-length human HER3 extracellular domain (ECD) (human, UniProt P21860 20-643).
T2 construct: also called human HER3 ECD; HER-3 ECD full length
The description is as above. As to the method: as §1

Assay [3] has as its target T3, Human HER3 receptor (human, UniProt P21860 20-1342). Put plainly: cell-based or functional assay.
The target in assay [4] is T3, Human HER3 receptor. Put plainly: cell-based or functional assay. This is another data set of the same source.
Assay [5] addresses T4, Human HER3 ECD domain II (human, UniProt P21860 184-329).
T4 construct: also called D2; Domain 2
The assay can be described thus: DELFIA, plate coated with HER3 Domain II 1ug/ml. As to the method: (§2) Dissociation Enhanced Lanthanide Fluorescence Immunoassay (DELFIA) for detection of the anti-HER3 antibodies to HER3 extracellular domain (ECD) was used. The DELFIA procedures were as follows: white Maxisorp 96-well plates (Nunc #437796) were coated with 100 ul/well of 1 ug/ml HER-3 ECD full length or HER3Domain I, II, III and IV in 0.1M carbonate buffer pH 9.5 overnight at 4° C. These plates were blocked with casein in TBS (Thermo Scientific #37532 lot#JD121074). The neat hybridoma supernatant, or the purified anti-HER3 antibodies diluted in Perkin Elmer #4002-0010 Assay Buffer from 10 ug/ml (or 100 ug/ml) to 0.01 ug/ml, or the PK serum samples with a minimum of 3 dilutions (100 ul/well) were added to the plate. These samples were incubated for 2 hours at room temperature while on a plate shaker or overnight at 4° C. […] The plate was washed 4 times with tris-buffer plus 0.05% tween-20 (Perkin Elmer #4010-0010) on a BIOTEK™ plate washer following each antibody incubation step. 100 ul/well of DELFIA enhancement solution (Perkin Elmer 1244-105) was added for 5 minutes at room temperature. […] Antibody binding was recorded as europium counts per well.

Assay [6] concerns the target T2, Full-length human HER3 extracellular …. Put plainly: DELFIA (europium time-resolved fluorescence), plate coated with HER3 ECD Full Length 1ug/ml, antibody titrated 0.001-10 ug/ml. As to the method: as §2
The target of assay [7] is T4, Human HER3 ECD domain II. The assay can be described thus: DELFIA, plate coated with HER3 Domain II 1ug/ml. This is another data set of the same source.
Assay [8] deals with T2, Full-length human HER3 extracellular …. The assay can be described thus: DELFIA (europium time-resolved fluorescence), plate coated with HER3 ECD Full Length 1ug/ml, antibody titrated 0.001-10 ug/ml. This is another data set of the same source.
The target is the same in assay [9]. Put plainly: BIACORE 2000 SPR, mAb captured, HER3 protein as analyte, 25 C. As to the method: (§3) Mouse monoclonal antibodies were analysed using rabbit anti-mouse (RAM) IgG (GE Healthcare BR-1008-38) covalently coupled to a BIACORE™ CM5 chip (GE HEalthcare BR-1000-14) by primary amine chemistry (NHS/EDC activated) (GE Healthcare amine coupling kit BR-1000-50). Chimeric and humanized competitor monoclonal antibodies were analyzed using anti-human, Fc specific monoclonal (GE Healthcare BR-1008-39) similarly coupled. Each chip was also prepared with a reference surface to which no capture reagent antibody is coupled. Sensorgrams for cycles run with differing analyte concentrations are acquired for kinetic analysis. A cycle consists of capturing the monoclonal on the surface, a short stabilization period with flowing run buffer followed by binding of a defined concentration of analyte (ECD or sub-domain protein). Injection of analyte for surface binding (3-4 minutes) yields the association part of curve. This is followed by buffer only flow (3-4 minutes) which allows recording of dissociation data.
(§4) The general method for affinity analysis is as follows. First, chips were prepared and tested for reasonance units (RU) captured for several monoclonal antibody concentrations. Kinetic cycles were then run in which monoclonal antibody was captured to a level of approximately 100RU, analyte protein was allowed to bind then dissociate and the surface was regenerated to remove all but covalently coupled protein. RAM chips were regenerated with capture kit supplied 100 mM glycine pH1.7 and anti-human chips with capture kit supplied 3M MgCl₂. […] Several buffer cycles were run prior to analyte protein to ensure cycle consistency and in some experiments a buffer cycle is used a “double reference[.]” Analytes used were human full length HER3 extra cellular domain (ECD), separate sub-domains of the extracellular portion of human HER3 (D1, D2, D3, D4), or combination HER3 domain proteins (D1-2 and D2-3).
On the technique in general: In SPR one partner is held on a chip, and binding of the other changes the refractive index at the surface.

Assay [10] deals with T5, Human HER3 ECD domain III (human, UniProt P21860 330-495).
T5 construct: also called D3; Domain 3
Described as above. As to the method:
as §3, §4

The target of assay [11] is T6, Human HER3 ECD domain 2-3 protein (human, UniProt P21860 184-495).
T6 construct: also called D2-3; sub-domains 2-3
The assay is described as above. On the procedure: as §3, §4

The target in assay [12] is T7, Murine HER3 on B16 and B16F10 melanoma cells (murine, UniProt Q61526 20-1339).
T7 construct: whole, on cells
Put plainly: flow cytometry on B16F10 murine melanoma cells, antibody labelled with a Zenon APC kit [a]. From the text:
B16F10 ZENON™ labeling kits: [0530] Mouse IgG1 PE—Invitrogen Z25021 [0531] Mouse IgG1 APC—Invitrogen Z25051 [0532] Mouse IgG2b APC—Invitrogen Z25151 Method: Commercially available anti-human EGFR and HER2 antibodies were provided. A commercially available HER3 antibody represented by the provider to recognizes human HER3 was provided. The murine 15D5 antibody, murine 1D9 antibody (M5.1D9.1F5), murine 24H5 antibody (M5.24H5.C2) antibodies were also provided. These antibodies were labeled with either PE or APC using the ZENON™ labeling kits (Invitrogen). 5×10⁶ B 16, or B16F10, murine melanoma cells were added to flow cytometry tubes containing the labeled anti-HER3 antibodies. Cells and antibodies were incubated for 30 minutes on ice in the dark, washed and resuspended in FACS buffer. Cells were then analyzed on a FACSCANTO™ flow cytometer. Data analysis was performed using […]™ software, developed by BD Biosciences. Cell populations were gated using forward vs. side scatter and histograms of fluorescent intensities were generated.

Assay [13] concerns the target T3, Human HER3 receptor. Put plainly: cell-based or functional assay. The source holds these as a separate data set.
The target in assay [14] is T3, Human HER3 receptor. Put plainly: cell-based or functional assay. The source holds these as a separate data set.
Assay [15] addresses T2, Full-length human HER3 extracellular …. Put plainly: affinity summary table, method not given.
Assay [16] concerns the target T5, Human HER3 ECD domain III. Put plainly: affinity summary table, method not given.

Like-named read-outs stand apart in the source and are kept apart here.

T2 sequence (P21860 20-643): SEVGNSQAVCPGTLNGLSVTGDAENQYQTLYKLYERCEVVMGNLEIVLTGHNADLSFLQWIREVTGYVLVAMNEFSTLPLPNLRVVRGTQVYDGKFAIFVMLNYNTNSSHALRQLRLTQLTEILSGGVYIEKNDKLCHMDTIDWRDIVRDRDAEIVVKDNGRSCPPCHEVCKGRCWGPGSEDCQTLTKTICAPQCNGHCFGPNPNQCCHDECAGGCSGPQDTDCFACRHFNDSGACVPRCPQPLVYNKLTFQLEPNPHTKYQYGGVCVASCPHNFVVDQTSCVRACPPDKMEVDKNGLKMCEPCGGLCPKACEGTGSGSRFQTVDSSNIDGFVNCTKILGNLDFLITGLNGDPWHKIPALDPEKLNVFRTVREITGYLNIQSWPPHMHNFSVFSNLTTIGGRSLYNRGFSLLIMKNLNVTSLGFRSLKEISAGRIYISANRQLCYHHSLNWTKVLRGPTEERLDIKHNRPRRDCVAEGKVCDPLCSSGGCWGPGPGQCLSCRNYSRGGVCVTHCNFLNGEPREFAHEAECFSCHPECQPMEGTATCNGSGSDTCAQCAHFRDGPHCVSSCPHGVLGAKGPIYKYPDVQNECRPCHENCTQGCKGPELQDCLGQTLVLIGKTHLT
T1 sequence (Q62799 20-643): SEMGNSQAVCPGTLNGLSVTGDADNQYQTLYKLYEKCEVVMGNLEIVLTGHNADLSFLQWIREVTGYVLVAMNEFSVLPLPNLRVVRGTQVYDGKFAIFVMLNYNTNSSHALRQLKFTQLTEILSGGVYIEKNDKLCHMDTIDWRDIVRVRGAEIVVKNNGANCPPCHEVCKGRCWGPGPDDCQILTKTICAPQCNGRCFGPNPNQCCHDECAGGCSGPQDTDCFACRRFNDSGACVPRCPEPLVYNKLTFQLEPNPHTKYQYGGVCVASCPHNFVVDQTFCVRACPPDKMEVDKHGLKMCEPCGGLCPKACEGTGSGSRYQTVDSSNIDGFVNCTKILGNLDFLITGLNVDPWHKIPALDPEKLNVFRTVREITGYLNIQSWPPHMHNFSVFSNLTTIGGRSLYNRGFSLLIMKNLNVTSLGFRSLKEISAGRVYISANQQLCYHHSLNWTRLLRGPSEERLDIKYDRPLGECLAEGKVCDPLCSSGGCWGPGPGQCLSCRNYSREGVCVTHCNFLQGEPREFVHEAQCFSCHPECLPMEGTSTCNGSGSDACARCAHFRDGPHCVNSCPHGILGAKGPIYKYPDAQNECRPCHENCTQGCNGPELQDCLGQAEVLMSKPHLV
T3 sequence (P21860 20-1342 limits assumed): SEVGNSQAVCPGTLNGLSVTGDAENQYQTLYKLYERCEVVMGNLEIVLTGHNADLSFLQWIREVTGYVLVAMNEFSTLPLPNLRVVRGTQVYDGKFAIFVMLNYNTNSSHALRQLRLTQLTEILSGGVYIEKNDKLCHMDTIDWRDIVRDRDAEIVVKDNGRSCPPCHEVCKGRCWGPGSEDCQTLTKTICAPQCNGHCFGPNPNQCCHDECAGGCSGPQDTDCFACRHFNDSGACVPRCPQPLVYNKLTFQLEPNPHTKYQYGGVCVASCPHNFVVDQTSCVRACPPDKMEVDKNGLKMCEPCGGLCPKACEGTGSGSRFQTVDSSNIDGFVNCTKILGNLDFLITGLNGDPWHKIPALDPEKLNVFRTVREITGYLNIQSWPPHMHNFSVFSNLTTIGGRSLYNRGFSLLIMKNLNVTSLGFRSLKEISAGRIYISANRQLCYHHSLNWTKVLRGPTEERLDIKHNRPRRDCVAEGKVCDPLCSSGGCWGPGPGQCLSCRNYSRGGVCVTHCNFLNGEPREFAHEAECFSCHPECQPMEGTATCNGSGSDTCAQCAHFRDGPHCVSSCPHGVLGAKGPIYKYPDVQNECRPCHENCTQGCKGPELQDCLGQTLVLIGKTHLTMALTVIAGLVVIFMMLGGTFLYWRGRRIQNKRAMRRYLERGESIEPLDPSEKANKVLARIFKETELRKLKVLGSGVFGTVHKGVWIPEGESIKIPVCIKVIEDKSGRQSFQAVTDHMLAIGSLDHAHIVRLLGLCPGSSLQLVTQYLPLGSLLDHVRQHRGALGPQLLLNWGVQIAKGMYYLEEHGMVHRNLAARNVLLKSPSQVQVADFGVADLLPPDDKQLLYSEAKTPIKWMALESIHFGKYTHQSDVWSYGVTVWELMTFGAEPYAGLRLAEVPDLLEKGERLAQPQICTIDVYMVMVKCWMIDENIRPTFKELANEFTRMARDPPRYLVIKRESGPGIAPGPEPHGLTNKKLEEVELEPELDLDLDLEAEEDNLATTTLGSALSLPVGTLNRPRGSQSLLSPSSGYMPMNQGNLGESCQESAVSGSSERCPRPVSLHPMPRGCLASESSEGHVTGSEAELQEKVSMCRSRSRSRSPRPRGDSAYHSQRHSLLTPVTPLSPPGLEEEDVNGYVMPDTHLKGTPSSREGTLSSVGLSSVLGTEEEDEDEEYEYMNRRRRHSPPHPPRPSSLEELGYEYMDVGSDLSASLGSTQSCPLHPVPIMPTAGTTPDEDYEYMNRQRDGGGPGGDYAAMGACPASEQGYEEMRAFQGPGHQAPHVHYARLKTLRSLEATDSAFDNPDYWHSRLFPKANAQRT
T4 sequence (P21860 184-329): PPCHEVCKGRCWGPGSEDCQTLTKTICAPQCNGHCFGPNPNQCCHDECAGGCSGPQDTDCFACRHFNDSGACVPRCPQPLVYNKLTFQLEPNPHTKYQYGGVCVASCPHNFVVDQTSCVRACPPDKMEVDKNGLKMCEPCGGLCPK
T5 sequence (P21860 330-495): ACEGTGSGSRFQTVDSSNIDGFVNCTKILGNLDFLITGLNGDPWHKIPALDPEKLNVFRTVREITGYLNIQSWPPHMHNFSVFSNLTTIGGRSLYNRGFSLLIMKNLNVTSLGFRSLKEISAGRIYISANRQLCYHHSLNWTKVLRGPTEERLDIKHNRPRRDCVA
T6 sequence (P21860 184-495): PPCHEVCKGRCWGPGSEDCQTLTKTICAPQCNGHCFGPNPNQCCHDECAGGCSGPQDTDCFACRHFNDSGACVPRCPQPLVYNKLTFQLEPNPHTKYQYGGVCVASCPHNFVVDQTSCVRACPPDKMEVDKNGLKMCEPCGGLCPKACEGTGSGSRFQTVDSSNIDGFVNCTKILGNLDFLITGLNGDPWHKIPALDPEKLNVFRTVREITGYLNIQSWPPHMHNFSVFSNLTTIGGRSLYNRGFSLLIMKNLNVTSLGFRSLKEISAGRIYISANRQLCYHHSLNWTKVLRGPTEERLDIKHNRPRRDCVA
T7 sequence (Q61526 20-1339, one chain of several): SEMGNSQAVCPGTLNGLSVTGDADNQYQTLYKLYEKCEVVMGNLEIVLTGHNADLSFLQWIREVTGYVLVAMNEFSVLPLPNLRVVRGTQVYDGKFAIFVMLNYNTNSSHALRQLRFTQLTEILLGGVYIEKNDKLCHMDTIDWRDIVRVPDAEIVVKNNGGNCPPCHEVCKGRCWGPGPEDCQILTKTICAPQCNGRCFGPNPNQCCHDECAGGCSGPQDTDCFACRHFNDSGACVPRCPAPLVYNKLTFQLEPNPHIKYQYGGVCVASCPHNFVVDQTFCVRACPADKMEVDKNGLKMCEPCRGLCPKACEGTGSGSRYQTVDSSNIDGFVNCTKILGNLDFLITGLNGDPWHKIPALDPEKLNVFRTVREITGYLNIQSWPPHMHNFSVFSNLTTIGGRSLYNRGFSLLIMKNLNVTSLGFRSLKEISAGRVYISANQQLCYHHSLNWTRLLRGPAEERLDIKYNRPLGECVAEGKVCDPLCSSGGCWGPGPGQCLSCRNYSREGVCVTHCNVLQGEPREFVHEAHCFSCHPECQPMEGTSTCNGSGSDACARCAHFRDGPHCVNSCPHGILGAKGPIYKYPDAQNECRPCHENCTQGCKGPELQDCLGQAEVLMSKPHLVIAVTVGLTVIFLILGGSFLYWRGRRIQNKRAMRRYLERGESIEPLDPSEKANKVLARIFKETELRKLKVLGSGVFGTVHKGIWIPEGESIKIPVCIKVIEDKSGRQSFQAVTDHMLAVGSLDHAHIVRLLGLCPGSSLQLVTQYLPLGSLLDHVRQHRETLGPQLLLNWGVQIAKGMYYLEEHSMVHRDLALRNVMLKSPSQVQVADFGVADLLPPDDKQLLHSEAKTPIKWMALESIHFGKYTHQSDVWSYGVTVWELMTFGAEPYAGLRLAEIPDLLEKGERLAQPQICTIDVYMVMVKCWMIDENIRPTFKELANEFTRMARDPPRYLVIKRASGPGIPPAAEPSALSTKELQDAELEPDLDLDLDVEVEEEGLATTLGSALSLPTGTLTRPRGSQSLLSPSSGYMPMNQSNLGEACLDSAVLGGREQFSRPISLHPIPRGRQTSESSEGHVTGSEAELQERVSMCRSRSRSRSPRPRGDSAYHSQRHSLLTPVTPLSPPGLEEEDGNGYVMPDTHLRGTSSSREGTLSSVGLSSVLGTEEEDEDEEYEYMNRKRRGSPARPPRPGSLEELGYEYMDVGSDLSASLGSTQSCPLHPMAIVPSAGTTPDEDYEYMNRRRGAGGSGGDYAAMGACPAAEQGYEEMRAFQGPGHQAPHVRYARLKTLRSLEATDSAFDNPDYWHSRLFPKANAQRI

B1: Humanized 1D9 POTELLIGENT™ antibody (antibody, human IgG1, kappa)
heavy: not shown
light: DIQMTQSPSSLSASVGDRVTITCRSSQSIVHSSGNTYLQWFQQKPGKAPKLLIYKVSNRFSGVPSRFSGSGSGTDFTLTISSLQPEDFAVYYCFQGSHVPWTFGQGTKLEIKRTVAAPSVFIFPPSDEQLKSGTASVVCLLNNFYPREAKVQWKVDNALQSGNSQESVTEQDSKDSTYSLSSTLTLSKADYEKHKVYACEVTHQGLSSPVTKSFNRGEC
modifications: non-fucosylated glycans on the marked N* residue
notes: Same chains as the humanized 1D9 antibody, expressed in FUT8- cells; also called humanized 1D9 H6L2 POTELLIGENT antibody
As to B1, in assay [1], binding was characterised by a dissociation constant (Kd) of 3.37 nM, the dissociation rate constant (koff) was found to be 0.0011 s⁻¹ and the kon worked out at 326000 M⁻¹ s⁻¹. For the same molecule, in assay [2], the Kd stood at 2.01 nM, the dissociation rate constant (koff) turned out to be 0.00223 s⁻¹ and the association rate constant (kon) was 1.11e+06 M⁻¹ s⁻¹. In the assay with Human HER3 receptor [3], the “Phospho-AKT ELISA IC50, heregulin induced, BxPC3 cells” value (shortened to “Phospho-AKT ELISA IC50”) was 0.0228 µg/mL. Moreover, in the assay with Human HER3 receptor [4], the “Phospho-HER3 ELISA IC50, heregulin induced, BxPC3 cells” value (“Phospho-HER3 ELISA IC50 … BxPC3 cells” below) came to 0.0056 µg/mL; the “Phospho-HER3 ELISA IC50, heregulin induced, CHL-1 cells” value (“Phospho-HER3 ELISA IC50 … CHL-1 cells” for short) was determined as 0.0282 µg/mL; the “Phospho-HER3 ELISA IC50, heregulin induced, N87 cells” value (from here on “Phospho-HER3 ELISA IC50 … N87 cells”) was determined as 0.0175 µg/mL; the “Phospho-HER3 ELISA IC50, heregulin induced, SK-BR-3 cells” value is 0.0034 µg/mL. In addition, the binding result in the assay with Human HER3 ECD domain II [5] is reported as “no binding (tested: 10 ug/ml)”. The “EC50 (read off the curve)” value in [6] was about 0.03 µg/mL.

B2: Humanized 1D9 antibody (antibody, human IgG1, kappa)
heavy: not shown
light: DIQMTQSPSSLSASVGDRVTITCRSSQSIVHSSGNTYLQWFQQKPGKAPKLLIYKVSNRFSGVPSRFSGSGSGTDFTLTISSLQPEDFAVYYCFQGSHVPWTFGQGTKLEIKRTVAAPSVFIFPPSDEQLKSGTASVVCLLNNFYPREAKVQWKVDNALQSGNSQESVTEQDSKDSTYSLSSTLTLSKADYEKHKVYACEVTHQGLSSPVTKSFNRGEC
notes: Expressed in FUT8+ cells; also called HZ1D9; H6L2
As to B2, in the assay with Human HER3 ECD domain II [7], the binding result was “no binding (tested: 10 ug/ml)”. Also, in assay [8], the “EC50 (read off the curve)” value is about 0.04 µg/mL. For the same molecule, in assay [2], binding was put at a Kd of 4.5 nM, the off-rate (koff) was found to be 0.00184 s⁻¹ and the kon was found to be 410000 M⁻¹ s⁻¹. Further, the “Phospho-AKT ELISA IC50” value in the assay with Human HER3 receptor [3] worked out at 0.0244 µg/mL. In the assay with Human HER3 receptor [4], the “Phospho-HER3 ELISA IC50 … BxPC3 cells” value amounted to 0.0116 µg/mL; the “Phospho-HER3 ELISA IC50 … CHL-1 cells” value was 0.0365 µg/mL; the “Phospho-HER3 ELISA IC50 … N87 cells” value is 0.0218 µg/mL; the “Phospho-HER3 ELISA IC50, heregulin induced, SK-BR-3 cells” value is 0.0036 µg/mL.

B3: Murine 1D9 antibody (M5.1D9.1F5) (antibody, IgG2b, V domains shown)
VH: QVQLQQPGAELVRPGTSVKLSCKASGYTFTSYWMHWVKQRPGQGLEWIGVIDPSDGYSHYNQKFKGKATLTVDTSSSTAYMQLSSLTSEDSAVYYCAGGLAGTLDYWGQGTTLTVSS
VL: DVLMTQTPLSLPVSLGDQASISCRSSQSIVHSSGNTYLQWFLQKPGQSPKLLISKVSNRFSGVPDRFSGSGSGTDFTLRISRVEAEDLGLYYCFQGSHVPWTFGGGTKLEIK
notes: Mouse monoclonal, IgG2b; also called m1D9
As for B3, in [9], the Kd stood at 0.82 nM and the kon stood at 355000 M⁻¹ s⁻¹. Further, in assay [10], the dissociation constant (Kd) came to 0.38 nM and the on-rate (kon) stood at 2.54e+06 M⁻¹ s⁻¹. In assay [11], the equilibrium dissociation constant (Kd) came to 0.47 nM and the association rate constant (kon) was 893000 M⁻¹ s⁻¹. The binding result in [12] is given as “binds”. In the assay with Human HER3 receptor [13], the “Phospho-HER3 … IC50, heregulin induced, CHO EGFR + HER3” value amounted to 0.0435 µg/mL and the “Phospho-HER3 … IC50, heregulin induced, CHO HER4 + HER3” value stood at 0.13 µg/mL. In the assay with Human HER3 receptor [14], the “Phospho-HER3 ELISA IC50, betacellulin induced, SK-BR-3 cells” value was 0.0036 µg/mL; the “Phospho-HER3 ELISA IC50, epidermal growth factor induced, SK-BR-3 cells” value came to 0.003 µg/mL; the “Phospho-HER3 ELISA IC50, heregulin induced, SK-BR-3 cells” value is 0.0032 µg/mL. In addition, in the assay with Human HER3 receptor [3], the “Phospho-AKT ELISA IC50” value turned out to be 0.0151 µg/mL. Further, in the assay with Human HER3 receptor [4], the “Phospho-HER3 ELISA IC50, heregulin induced, BT-474 cells” value was 0.0223 µg/mL; the “Phospho-HER3 ELISA IC50 … BxPC3 cells” value is 0.0068 µg/mL; the “Phospho-HER3 ELISA IC50 … CHL-1 cells” value is 0.0406 µg/mL; the “Phospho-HER3 ELISA IC50, heregulin induced, MCF7 cells” value turned out to be 0.0104 µg/mL. For the same molecule, in the assay with Human HER3 receptor [4], the “Phospho-HER3 ELISA IC50 … N87 cells” value was determined as 0.0204 µg/mL and the “Phospho-HER3 ELISA IC50, heregulin induced, SK-BR-3 cells” value was found to be 0.0032 µg/mL. Also, in assay [15], the dissociation constant Kd was about 1 nM. This molecule also returned a Kd in assay [16] of 0.39 nM. The binding result with Human HER3 ECD domain II [5] was “no binding (tested: 10 ug/ml)”.
